From US20260049151A1 (SHENGHE CHINA BIOPHARMACEUTICAL, published 2026) come the findings set out here.

Test [1] has as its target T1, Human-TNFR2-His (human, UniProt P20333 23-257).
T1 construct: Bought protein; also called human TNFR2 protein; TNFR2 protein; not shown: His tag
T1 sequence (looked up): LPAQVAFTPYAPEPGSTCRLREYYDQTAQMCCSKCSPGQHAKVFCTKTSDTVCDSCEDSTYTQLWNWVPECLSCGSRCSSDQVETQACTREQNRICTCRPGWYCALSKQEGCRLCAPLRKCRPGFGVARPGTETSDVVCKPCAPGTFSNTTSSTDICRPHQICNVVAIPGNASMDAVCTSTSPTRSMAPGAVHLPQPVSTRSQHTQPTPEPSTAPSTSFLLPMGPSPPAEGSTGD
Description: ELISA: Human-TNFR2-His coated (0.1 ug/mL), antibody titrated, goat anti-human IgG Fc detection (Example 2). How it is done:
(§1) Human-TNFR2-His (manufacturer: SINO, CAT: 10417-H08H, LOT: LC15NO0412) was diluted to 0.1 μg/mL with a coating solution (1×PBS, pH7.4), and coated in 96-well ELISA plate at 100 µL/well overnight at 4° C. The coating solution was poured off. Each well was washed with 1×PBST at 300 μL, washed 4 times with a plate washer, and patted dry on a flat paper. It was blocked with 3% skim milk powder at 300 μL/well, and incubated at 37° C. for 1 h. The blocking solution was poured off, washed 4 times with a plate washer, and patted dry on a flat paper. Negative control and positive control were set up. […] The positive control and antibody were diluted to 10 μg/mL with 3% skim milk powder as the starting concentration, and then diluted by 3-fold gradient (11 gradients in total), and a blank well was set up and only the diluent was added. It was incubated at 37° C. for 1 h at 100 μL/well. The liquid in the well was discarded, washed 4 times with a plate washer, and patted dry on a flat paper. Goat anti-human IgG Fc was diluted with 3% skim milk powder at 1:10000, and incubated at 37° C. for 1 h at 100 μL/well. It was washed 6 times with a plate washer, and patted dry on a flat paper. TMB color developing solution was added at 100 μL/well, and wrapped with aluminum foil. Color development was performed at 37° C. in the dark for 8 min. Termination solution 1M HCl was added to terminate the color development reaction at 100 μL/well. Readings were taken at 450 nm on an ELISA reader.

Test [2] concerns the target T1, Human-TNFR2-His. The test is described as above. How it is done:
as §1
This is another data set of the same source.

For test [3], the target named is T1, Human-TNFR2-His. The description is as above. How it is done:
as §1
The source holds these as a separate data set.

The target of test [4] is T1, Human-TNFR2-His. The description is as above. How it is done:
as §1
The source holds these as a separate data set.

Test [5] concerns the target T1, Human-TNFR2-His. Description: BLI, antibody on AHC sensor, 100 nM TNFR2-His in solution. How it is done:
The AHC sensor was soaked in 0.02% PBST (0.02% Tween 20, pH 7.4, 1×PBS) as a buffer for 600 s to remove the sucrose covering the sensor surface. The AHC sensor was equilibrated with 0.02% PBST (0.02% Tween 20, pH 7.4, 1×PBS) as a buffer for 60 s, the antibody in the sample plate was solidified for 300 s, and the secondary equilibration buffer was used for 180 s. 100 nM human-TNFR2-His (manufacturer: SINO, CAT: 10417-H08H, LOT: LC15NO0412) protein was bound to the antibody for 300 s and then dissociated for 600 s. After dissociation, 10 mM glycine (pH 2.0) was used as a regeneration buffer for 30 s. The sensor was regenerated with 10 mM glycine (pH 2.0).
Background: In BLI a coated tip is dipped into the sample, and binding shifts an interference pattern.

Test [6] concerns the target T2, Human 4-1BB His (human, UniProt Q07011 24-186).
T2 construct: Bought protein; lots 198-2146F1-W6 and 2407c-214FF1-YC; also called human 4-1BB protein; 4-1BB protein; not shown: His tag
Kind of test: ELISA: Human 4-1BB His coated (0.2 ug/mL), antibody titrated, goat anti-human IgG Fc detection (Example 3). How it is done:
(§2) Human 4-1BB His (manufacturer: Acro, CAT: 41B-H5258, LOT: 198-2146F1-W6) was diluted to 0.2 μg/mL with a coating solution (1×PBS, pH7.4), and coated in 96-well ELISA plate at 100 μL/well overnight at 4° C. The coating solution was poured off. Each well was washed with 1×PBST at 300 μL, washed 4 times with a plate washer, and patted dry on a flat paper. It was blocked with 3% skim milk powder at 300 μL/well, and incubated at 37° C. for 1 h. The blocking solution was poured off, washed 4 times with a plate washer, and patted dry on a flat paper. Negative control and positive control were set up. […] The variable region of the antibody sequence of the positive control consists of SEQ ID NO: 15 and SEQ ID NO: 19, with the addition of the constant region of human IgG1 (SEQ ID NO: 46 and SEQ ID NO: 47). The positive control and antibody were diluted to 10 μg/mL with 3% skim milk powder as the starting concentration, and then diluted by 3-fold gradient (11 gradients in total), and a blank well was set up and only the diluent was added. It was incubated at 37° C. for 1 h at 100 μL/well. The liquid in the well was discarded, washed 4 times with a plate washer, and patted dry on a flat paper. Goat anti-human IgG Fc was diluted with 3% skim milk powder at 1:20000, and incubated at 37° C. for 1 h at 100 μL/well. It was washed 6 times with a plate washer, and patted dry on a flat paper. TMB color developing solution was added at 100 μL/well, and wrapped with aluminum foil. Color development was performed at 37° C. in the dark for 8 min. Termination solution 1M HCl was added to terminate the color development reaction at 100 μL/well. Readings were taken at 450 nm on an ELISA reader.
Background: In an ELISA, binding on a coated surface is turned into a signal by an enzyme label.

In a further test the target is T3, Human 4-1BB Fc (human, UniProt Q07011 24-186).
T3 construct: same catalogue and lot number as Human 4-1BB His; not shown: Fc
T3 sequence (Q07011 24-186 limits assumed): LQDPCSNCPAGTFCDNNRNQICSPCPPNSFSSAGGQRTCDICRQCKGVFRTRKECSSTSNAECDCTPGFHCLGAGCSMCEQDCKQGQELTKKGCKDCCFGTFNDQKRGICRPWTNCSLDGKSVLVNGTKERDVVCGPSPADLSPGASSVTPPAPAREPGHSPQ
Kind of test: bridging ELISA: Human 4-1BB Fc coated (0.3 ug/mL), antibody titrated, then Human-TNFR2-His (0.3 ug/mL), HRP anti-His detection (Example 4). How it is done: Human 4-1BB Fc (manufacturer: Acro, CAT: 41B-H5258, LOT: 198-2146F1-W6) was diluted to 0.3 μg/mL with a coating solution (1×PBS, pH7.4) and coated into a 96-well ELISA plate at 100 µL/well at 4° C. overnight. The coating solution was poured off. Each well was washed with 1×PBST at 300 μL, washed 4 times with a plate washer, and patted dry on a flat sheet. It was blocked with 3% skim milk powder at 300 μL/well, and incubated at 37° C. for 1 h. The blocking solution was poured off, washed 4 times with a plate washer, and patted dry on a flat sheet. […] Starting at 50 nM, which was used as the initial concentration for 3-fold dilution, a total of 10 gradients were diluted, and a blank well was set up and only the diluent was added. It was incubated at 37° C. for 1 h at 100 μL/well. The liquid in the well was discarded, washed 4 times with a plate washer, and patted dry on a flat paper. Human-TNFR2-His (manufacturer: Sino, CAT: 10417-H08H, LOT: LC15NO0412) was diluted to 0.3 μg/mL, 100 μL was added to each well, and incubated at room temperature for 1 h. The plate was washed 3 times with PBST, and then the HRP-labeled his antibody was diluted with sample diluent at 1:5000, 100 μ L was added to each well, and incubated at room temperature for 1 h. It was washed 6 times with a plate washer, and patted dry on a flat paper. TMB color developing solution was added at 100 μL/well, and wrapped with aluminum foil. Color development was performed at 37° C. in the dark for 8 min. Termination solution 1M HCl was added to terminate the color development reaction at 100 μL/well. Readings were taken at 450 nm on an ELISA reader.

The next test has as its target T4, Human TNFR2 mFc (human, UniProt P20333 23-257).
T4 construct: Bought protein; not shown: mFc
T4 sequence (looked up): T1 sequence (looked up)
Kind of test: bridging ELISA: Human TNFR2 mFc coated (0.3 ug/mL), antibody titrated, then Human 4-1BB His (0.3 ug/mL), HRP anti-His detection (Example 5). How it is done: Human TNFR2 mFc (manufacturer: Kaixia, CAT: TN-HM3R2, LOT: 031202) was diluted to 0.3 μg/mL with a coating solution (1×PBS, pH7.4) and coated into a 96-well ELISA plate at 100 μL/well at 4° C. overnight. The coating solution was poured off. Each well was washed with 1×PBST at 300 μL, washed 4 times with a plate washer, and patted dry on a flat paper. It was blocked with 3% skim milk powder at 300 μL/well, and incubated at 37° C. for 1 h. The blocking solution was poured off, washed 4 times with a plate washer, and patted dry on a flat paper. […] Starting at 50 nM, which was used as the initial concentration for 3-fold dilution, a total of 10 gradients were diluted, and a blank well was set up and only the diluent was added. It was incubated at 37° C. for 1 h at 100 µL/well. The liquid in the well was discarded, washed 4 times with a plate washer, and patted dry on a flat paper. Human 4-1BB His (manufacturer: Acro, CAT: 41B-H5258, LOT: 198-2146F1-W6) was diluted to 0.3 μg/mL, 100 μL was added to each well, and incubated at room temperature for 1 h. The plate was washed 3 times with PBST, and then the HRP-labeled his antibody was diluted with sample diluent at 1:5000, 100 μ L was added to each well, and incubated at room temperature for 1 h. It was washed 6 times with a plate washer, and patted dry on a flat paper. TMB color developing solution was added at 100 μL/well, and wrapped with aluminum foil. Color development was performed at 37° C. in the dark for 8 min. Termination solution 1M HCl was added to terminate the color development reaction at 100 μL/well. Readings were taken at 450 nm on an ELISA reader.

In test [7] the target is T1, Human-TNFR2-His. Kind of test: ELISA: Human-TNFR2-His coated (0.1 ug/mL), antibody titrated, goat anti-human IgG Fc detection (Example 2). How it is done:
as §1
This is another data set of the same source.

In test [8] the target is T2, Human 4-1BB His. Kind of test: ELISA: Human 4-1BB His coated (0.2 ug/mL), antibody titrated, goat anti-human IgG Fc detection (Example 3). How it is done: as §2
This is another data set of the same source.

Like-named read-outs stand apart in the source and are kept apart here.

T2 sequence (Q07011 24-186 limits assumed): as above

B1: Positive control 1 (anti-TNFR2 antibody, human IgG1) (antibody, V domains shown)
VH: EVQLVQSGAEVKKPGATVKISCKVSGYSITDYLLHWVQQAPGKGLEWMGWIDPEDAKTKYGQKFQSRVTITADTSTDTAYMELSSLRSEDTAVYYCAANSGTGTMDAWGQGTLVTVSS
VL: DIVMTQSPATLSVSPGERATLSCKASQNVGSNVDWYQQKPGQSPRVLIYKASIRYTGIPARFSGSGSGTEFTLTISILQSEDFAVYFCMQSKSYPITFGQGTKLEIK
For orientation: EC50 (read off the curve) means the concentration needed to bring the measured effect to its halfway point. A high value points to a less potent agent. The term Kd denotes the concentration at which binding is half-saturated. High values mean weaker binding, low ones tighter binding. By koff is commonly meant a measure of how fast the partners let go of each other. A higher koff goes with fast dissociation. By kon is commonly meant a measure of how fast the partners come together. High values mean fast association, low ones slow association. For the molecule B1, the “EC50 (read off the curve)” value with Human-TNFR2-His [1], in the test with Human-TNFR2-His [2], with Human-TNFR2-His [3] and in the test with Human-TNFR2-His [4] was approximately 0.03 nM throughout. Moreover, the Kd in the test with Human-TNFR2-His [5] turned out to be 0.0724 nM. Besides, the koff with Human-TNFR2-His [5] was 1.86e-05 s⁻¹. The molecule further had a kon in the test with Human-TNFR2-His [5] of 257000 M⁻¹ s⁻¹.

B2: Antibody A (bispecific antibody, human IgG1, kappa)
light: DIQMTQSPSSLSASLGDRVTISCSASQGISNYLNWYQQKPDGTVKLLIYYTSTLHSGVPSRFSGSGSGTDYTLTISSLQPEDIATYYCQQYSKLPWTFGGGTKLEIKRTVAAPSVFIFPPSDEQLKSGTASVVCLLNNFYPREAKVQWKVDNALQSGNSQESVTEQDSKDSTYSLSSTLTLSKADYEKHKVYACEVTHQGLSSPVTKSFNRGEC
heavy: not shown
notes: IgG1 subtype; full-length 4-1BB antibody with TNFR2 scFv at the C-terminus of the heavy chains; two identical first and two identical second peptide chains
For B2, the “EC50 (read off the curve)” value was approximately 0.2 nM with Human 4-1BB His [6], approximately 0.4 nM with Human-TNFR2-His [2], approximately 0.5 nM with Human 4-1BB Fc and approximately 0.2 nM with Human TNFR2 mFc.

B3: Antibody J2 (bispecific antibody, human IgG4 S228P, kappa)
light: B2 light
heavy: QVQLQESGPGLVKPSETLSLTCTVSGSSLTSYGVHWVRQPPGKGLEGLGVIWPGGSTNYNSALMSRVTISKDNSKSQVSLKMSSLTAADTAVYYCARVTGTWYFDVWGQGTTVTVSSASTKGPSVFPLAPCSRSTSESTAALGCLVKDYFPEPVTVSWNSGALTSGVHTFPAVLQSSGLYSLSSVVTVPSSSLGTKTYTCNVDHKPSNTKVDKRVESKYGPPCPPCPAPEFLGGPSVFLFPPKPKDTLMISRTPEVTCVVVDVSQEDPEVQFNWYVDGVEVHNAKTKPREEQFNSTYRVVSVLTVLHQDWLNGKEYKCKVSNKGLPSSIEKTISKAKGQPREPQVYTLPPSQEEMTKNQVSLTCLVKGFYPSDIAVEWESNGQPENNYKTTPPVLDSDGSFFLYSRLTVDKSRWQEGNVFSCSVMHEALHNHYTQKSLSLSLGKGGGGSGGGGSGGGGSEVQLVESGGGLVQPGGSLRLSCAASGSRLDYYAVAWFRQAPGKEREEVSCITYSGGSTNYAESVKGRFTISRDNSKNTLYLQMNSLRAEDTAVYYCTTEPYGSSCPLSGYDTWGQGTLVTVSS
notes: IgG4 subtype; same order as J1
With B3, the “EC50 (read off the curve)” value with Human-TNFR2-His [7] and with Human 4-1BB His [8] was approximately 0.2 nM in each case.

B4: Antibody C (bispecific antibody, human IgG1, kappa)
light: B2 light
heavy: not shown
notes: IgG1 subtype; full-length 4-1BB antibody with TNFR2 scFv at the N-terminus of the heavy chains
As for B4, the “EC50 (read off the curve)” value with Human 4-1BB His [6] was approximately 0.1 nM; with Human-TNFR2-His [2], approximately 0.06 nM; with Human 4-1BB Fc, approximately 0.5 nM; with Human TNFR2 mFc it was approximately 0.2 nM.

B5: Antibody M2 (bispecific antibody, human IgG4 S228P, kappa)
light: B2 light
heavy: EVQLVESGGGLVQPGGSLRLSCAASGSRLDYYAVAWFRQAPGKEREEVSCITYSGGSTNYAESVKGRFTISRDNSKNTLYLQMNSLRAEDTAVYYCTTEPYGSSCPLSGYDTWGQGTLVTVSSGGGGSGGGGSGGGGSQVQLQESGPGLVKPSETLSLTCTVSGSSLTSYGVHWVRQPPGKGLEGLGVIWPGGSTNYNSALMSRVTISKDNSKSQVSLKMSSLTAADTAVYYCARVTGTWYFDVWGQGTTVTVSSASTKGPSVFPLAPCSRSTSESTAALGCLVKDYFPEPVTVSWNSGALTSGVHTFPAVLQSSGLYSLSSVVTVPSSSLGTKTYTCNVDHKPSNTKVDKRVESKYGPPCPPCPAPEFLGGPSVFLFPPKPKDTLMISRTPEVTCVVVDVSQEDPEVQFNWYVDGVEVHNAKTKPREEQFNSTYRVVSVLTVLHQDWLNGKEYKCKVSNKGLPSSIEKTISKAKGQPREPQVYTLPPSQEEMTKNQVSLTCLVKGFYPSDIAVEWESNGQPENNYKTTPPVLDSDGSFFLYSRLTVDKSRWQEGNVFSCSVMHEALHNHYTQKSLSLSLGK
notes: IgG4 subtype; same order as M1
Consider B5, for which the “EC50 (read off the curve)” value with Human-TNFR2-His [7] is approximately 0.1 nM.
